{"source": "patent US20200148774A1", "binders": {"B1": {"name": "38E4v1 (antibody, V domains shown)", "VH": "EVQLVQSGAEVKKPGASVKVSCKASGFTFTSYYIHWVRQAPGQGLEWIGWIYPENDNTKYNEKFKDRVTITADTSTSTAYLELSSLRSEDTAVYYCARDGYSRYYFDYWGQGTLVTVSS", "VL": "DIVMTQSPDSLAVSLGERATINCKSSQSLLNSRTRKNYLAWYQQKPGQSPKLLIYWTSTRKSGVPDRFSGSGSGTDFTLTISSLQAEDVAVYYCKQSFILRTFGQGTKVEIK"}, "B2": {"name": "40G5c (antibody, V domains shown)", "VH": "B1 VH with F27Y, S31N, E54G, N55D, D56G, D66G, V68A, I70L, G100S, R103N", "VL": "B1 VL with S49P, T57A, K61E, K95T"}}, "molecular_target": "hCD3ε 1-27 Fc (human)", "sequence (chain, as listed by the source)": "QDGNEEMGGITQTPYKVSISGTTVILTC", "test": "SPR (Biacore)", "note": "Substitutions are numbered along the chain they refer to."}
{"binder": "B1", "values": [{"measurement": "Kd", "result": 1, "unit": "nM"}]}
{"binder": "B2", "values": [{"measurement": "Kd", "result": 13, "unit": "nM"}]}
